B1: Coiled-coil domain-containing protein 50 (Homo sapiens), Q8IVM0 (parent)
chain: MAEVSIDQSKLPGVKEVCRDFAVLEDHTLAHSLQEQEIEHHLASNVQRNRLVQHDLQVAKQLQEEDLKAQAQLQKRYKDLEQQDCEIAQEIQEKLAIEAERRRIQEKKDEDIARLLQEKELQEEKKRKKHFPEFPATRAYADSYYYEDGGMKPRVMKEAVSTPSRMAHRDQEWYDAEIARKLQEEELLATQVDMRAAQVAQDEEIARLLMAEEKKAYKKAKEREKSSLDKRKQDPEWKPKTAKAANSKSKESDEPHHSKNERPARPPPPIMTDGEDADYTHFTNQQSSTRHFSKSESSHKGFHYKH

Consider one variant from IntAct's records for PubMed 18029035.

The variants in this test derive from B1. The settings on record: with ubb_human UBB.
Regarding L116P, the “effect of a mutation on the interaction” value is on record as “decreasing interaction”.
